Binding signal data for 18 molecules are collected here from paper PMC6555819, “Comprehensive study of nuclear receptor DNA binding provides a revised framework for understanding receptor specificity”.

First the molecules themselves.
B1: NRC3_wobSeed135_DR5_A5C_o1 (dsDNA)
DNA 1: GCCGCACTAGGTCATTGACAGGACAGTGAATAGTAAGCGATTGACAGCGTAGAATGAAGG
DNA 2: CCTTCATTCTACGCTGTCAATCGCTTACTATTCACTGTCCTGTCAATGACCTAGTGCGGC
B2: NRC3_wobSeed25_DR1_T25A_o1 (dsDNA)
DNA 1: GCCAAACTAGGTCAAAGGTCAAAGACGAGCCAACCAGCGATTGACAGCGTAGAATGAAGG
DNA 2: CCTTCATTCTACGCTGTCAATCGCTGGTTGGCTCGTCTTTGACCTTTGACCTAGTTTGGC
B3: NRC3_random_hg19_277_o1 (dsDNA)
DNA 1: GCGGTGGCACACGCATGGAATCCCAGCGCTTTGGGAGCGATTGACAGCGTAGAATGAAGG
DNA 2: CCTTCATTCTACGCTGTCAATCGCTCCCAAAGCGCTGGGATTCCATGCGTGTGCCACCGC
B4: NRC3_wobSeed1_DR0_T8A_o1 (dsDNA)
DNA 1: GCCAAACAAGGTCAAGGTCAAAGTCGGTTTGTGCCAGCGATTGACAGCGTAGAATGAAGG
DNA 2: CCTTCATTCTACGCTGTCAATCGCTGGCACAAACCGACTTTGACCTTGACCTTGTTTGGC
B5: NRC3_wobSeed117_DR4_T11G_o1 (dsDNA)
DNA 1: GCCGTCAAAGGTCAACTAAGGTAACGTAAAGCACGCGCGATTGACAGCGTAGAATGAAGG
DNA 2: CCTTCATTCTACGCTGTCAATCGCGCGTGCTTTACGTTACCTTAGTTGACCTTTGACGGC
B6: NRC3_wobSeed25_DR1_T8C_o1 (dsDNA)
DNA 1: B2 DNA 1 with T8C, A25T
DNA 2: B2 DNA 2 with T36A, A53G
B7: NRC3_wobSeed113_DR4_G15T_o1 (dsDNA)
DNA 1: GCATATGTAGGTTATCTGGGGTCATTCAGACTAGGCGCGATTGACAGCGTAGAATGAAGG
DNA 2: CCTTCATTCTACGCTGTCAATCGCGCCTAGTCTGAATGACCCCAGATAACCTACATATGC
B8: NRC3_random_hg19_444_o1 (dsDNA)
DNA 1: GCGGGTGTGGTCGTGGGCACCTGCAGTCCCAGCTACGCGATTGACAGCGTAGAATGAAGG
DNA 2: CCTTCATTCTACGCTGTCAATCGCGTAGCTGGGACTGCAGGTGCCCACGACCACACCCGC
B9: NRC3_random_hg19_177_o1 (dsDNA)
DNA 1: GCATCTTTAGCAAGATACTTCATAGGTACTACTGTGGCGATTGACAGCGTAGAATGAAGG
DNA 2: CCTTCATTCTACGCTGTCAATCGCCACAGTAGTACCTATGAAGTATCTTGCTAAAGATGC
B10: NRC3_random_hg19_273_o1 (dsDNA)
DNA 1: GCTGCAGGGTTTCTACCGAGAAGTCTGCTGTTAGTCGCGATTGACAGCGTAGAATGAAGG
DNA 2: CCTTCATTCTACGCTGTCAATCGCGACTAACAGCAGACTTCTCGGTAGAAACCCTGCAGC
B11: NRC3_wobSeed93_DR3_A22C_o1 (dsDNA)
DNA 1: GCAGTCAAAGTTCATCTAGGTCACGTAAGATATGCTGCGATTGACAGCGTAGAATGAAGG
DNA 2: CCTTCATTCTACGCTGTCAATCGCAGCATATCTTACGTGACCTAGATGAACTTTGACTGC
B12: NRC3_random_hg19_198_o1 (dsDNA)
DNA 1: GCAGTTATGTCCACTTGCATAAGTGCAACGTTTGGCGCGATTGACAGCGTAGAATGAAGG
DNA 2: CCTTCATTCTACGCTGTCAATCGCGCCAAACGTTGCACTTATGCAAGTGGACATAACTGC
B13: NRC3_wobSeed53_DR2_A17T_o1 (dsDNA)
DNA 1: GCCCTTACGGGTCACGTGGTTATAGCACGACGAGCGGCGATTGACAGCGTAGAATGAAGG
DNA 2: CCTTCATTCTACGCTGTCAATCGCCGCTCGTCGTGCTATAACCACGTGACCCGTAAGGGC
B14: NRC3_random_hg19_388_o1 (dsDNA)
DNA 1: GCACAAGTCTACAAACCCTGGGAGAATGAGAAGTGTGCGATTGACAGCGTAGAATGAAGG
DNA 2: CCTTCATTCTACGCTGTCAATCGCACACTTCTCATTCTCCCAGGGTTTGTAGACTTGTGC
B15: NRC3_wobSeed124_DR5_T23G_o1 (dsDNA)
DNA 1: GCCCTACTGGGCCATTCAGAGGGCATTGATCATATGGCGATTGACAGCGTAGAATGAAGG
DNA 2: CCTTCATTCTACGCTGTCAATCGCCATATGATCAATGCCCTCTGAATGGCCCAGTAGGGC
B16: NRC3_random_hg19_142_o1 (dsDNA)
DNA 1: GCGGTACTCAGTATGTGAAGAATCATGTTGAGGCAGGCGATTGACAGCGTAGAATGAAGG
DNA 2: CCTTCATTCTACGCTGTCAATCGCCTGCCTCAACATGATTCTTCACATACTGAGTACCGC
B17: NRC3_wobSeed45_DR1_A9T_o1 (dsDNA)
DNA 1: GCTGTCAATGTTCAAAGGTAACGTAAGTATCCACACGCGATTGACAGCGTAGAATGAAGG
DNA 2: CCTTCATTCTACGCTGTCAATCGCGTGTGGATACTTACGTTACCTTTGAACATTGACAGC
B18: NRC3_random_hg19_491_o1 (dsDNA)
DNA 1: GCCGCCTTTAGATTGCAGGCTCCTGGAGAGCTGTCTGCGATTGACAGCGTAGAATGAAGG
DNA 2: CCTTCATTCTACGCTGTCAATCGCAGACAGCTCTCCAGGAGCCTGCAATCTAAAGGCGGC

Residue numbers refer to the chain shown, from its start.

Chain of VDR:RXRa (P11473 whole entry, chain 1 of 2): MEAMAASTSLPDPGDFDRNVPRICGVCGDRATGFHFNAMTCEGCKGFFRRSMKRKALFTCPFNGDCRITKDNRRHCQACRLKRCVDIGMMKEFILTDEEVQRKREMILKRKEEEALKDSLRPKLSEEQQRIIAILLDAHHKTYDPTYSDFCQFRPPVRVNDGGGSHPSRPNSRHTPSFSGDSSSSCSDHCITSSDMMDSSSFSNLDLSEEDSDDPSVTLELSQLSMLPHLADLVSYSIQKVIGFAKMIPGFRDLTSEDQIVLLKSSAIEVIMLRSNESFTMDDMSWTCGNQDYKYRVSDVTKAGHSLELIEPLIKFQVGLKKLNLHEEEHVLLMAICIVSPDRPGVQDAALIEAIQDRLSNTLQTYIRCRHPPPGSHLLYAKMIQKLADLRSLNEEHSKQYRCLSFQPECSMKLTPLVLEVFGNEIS
Chain of VDR:RXRa (P19793 whole entry, chain 2 of 2): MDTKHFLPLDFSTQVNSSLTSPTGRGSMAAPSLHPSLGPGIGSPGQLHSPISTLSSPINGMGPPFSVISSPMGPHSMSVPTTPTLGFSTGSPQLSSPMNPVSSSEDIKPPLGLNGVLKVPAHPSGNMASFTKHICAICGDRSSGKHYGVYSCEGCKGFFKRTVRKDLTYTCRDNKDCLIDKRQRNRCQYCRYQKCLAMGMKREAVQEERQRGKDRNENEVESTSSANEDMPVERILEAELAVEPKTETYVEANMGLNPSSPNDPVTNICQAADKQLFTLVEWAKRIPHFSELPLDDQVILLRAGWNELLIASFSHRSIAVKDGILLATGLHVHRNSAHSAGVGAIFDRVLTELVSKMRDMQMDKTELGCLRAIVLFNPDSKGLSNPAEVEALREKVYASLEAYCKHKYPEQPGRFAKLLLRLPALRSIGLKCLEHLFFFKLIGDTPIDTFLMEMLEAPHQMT
Chain of FXR:RXRa (Q96RI1 whole entry, chain 1 of 2): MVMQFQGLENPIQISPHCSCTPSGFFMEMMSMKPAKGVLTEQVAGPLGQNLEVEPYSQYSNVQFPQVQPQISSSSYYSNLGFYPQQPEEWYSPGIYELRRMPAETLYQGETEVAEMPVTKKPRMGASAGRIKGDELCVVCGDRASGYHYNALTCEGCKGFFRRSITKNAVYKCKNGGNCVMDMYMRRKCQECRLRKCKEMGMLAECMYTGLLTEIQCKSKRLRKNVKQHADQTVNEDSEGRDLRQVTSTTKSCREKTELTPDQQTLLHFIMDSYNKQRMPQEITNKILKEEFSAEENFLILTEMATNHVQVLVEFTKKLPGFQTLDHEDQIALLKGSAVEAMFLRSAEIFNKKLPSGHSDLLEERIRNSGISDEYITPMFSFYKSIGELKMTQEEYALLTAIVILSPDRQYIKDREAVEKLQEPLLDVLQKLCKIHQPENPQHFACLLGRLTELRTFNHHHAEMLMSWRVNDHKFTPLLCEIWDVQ
Chain of FXR:RXRa (P19793 whole entry, chain 2 of 2): as the sequence (P19793 whole entry, chain 2 of 2) above
Chain of RARg:RXRa (P13631 whole entry, chain 1 of 2): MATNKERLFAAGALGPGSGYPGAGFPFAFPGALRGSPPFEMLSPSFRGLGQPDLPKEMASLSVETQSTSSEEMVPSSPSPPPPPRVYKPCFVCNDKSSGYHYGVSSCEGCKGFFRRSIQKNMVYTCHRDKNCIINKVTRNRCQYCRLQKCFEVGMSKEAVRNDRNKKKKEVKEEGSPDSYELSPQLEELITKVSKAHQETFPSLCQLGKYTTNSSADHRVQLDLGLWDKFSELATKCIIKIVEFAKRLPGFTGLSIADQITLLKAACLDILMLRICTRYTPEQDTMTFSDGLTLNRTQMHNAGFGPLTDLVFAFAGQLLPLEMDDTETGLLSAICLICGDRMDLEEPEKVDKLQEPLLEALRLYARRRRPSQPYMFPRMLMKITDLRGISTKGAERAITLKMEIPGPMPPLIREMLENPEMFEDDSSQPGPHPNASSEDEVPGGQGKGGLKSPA
Chain of RARg:RXRa (P19793 whole entry, chain 2 of 2): as the sequence (P19793 whole entry, chain 2 of 2) above
Chain of RARb:RXRa (P10826 whole entry, chain 1 of 2): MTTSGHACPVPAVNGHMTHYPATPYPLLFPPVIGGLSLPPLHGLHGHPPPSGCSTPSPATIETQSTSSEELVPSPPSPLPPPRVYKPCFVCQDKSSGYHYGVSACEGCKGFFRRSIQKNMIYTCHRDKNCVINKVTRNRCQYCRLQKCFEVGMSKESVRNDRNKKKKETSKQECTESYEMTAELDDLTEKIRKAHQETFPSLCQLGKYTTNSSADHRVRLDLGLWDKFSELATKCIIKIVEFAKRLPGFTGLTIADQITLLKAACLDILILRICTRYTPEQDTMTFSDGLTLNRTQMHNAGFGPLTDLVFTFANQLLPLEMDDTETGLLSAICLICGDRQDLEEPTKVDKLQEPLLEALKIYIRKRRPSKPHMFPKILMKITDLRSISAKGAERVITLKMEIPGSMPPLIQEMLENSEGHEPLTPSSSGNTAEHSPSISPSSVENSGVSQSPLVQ
Chain of RARb:RXRa (P19793 whole entry, chain 2 of 2): as the sequence (P19793 whole entry, chain 2 of 2) above

The first data set concerns the target PPARg:RXRa (Homo sapiens, UniProt P37231;P19793 full;full). Nature of the data set: no ligand; PBM; 180 nM : 90 nM RXRa; PBS pH 7.4, 2% milk, 0.02% Triton X-100, 1 mM DTT, BSA, 0.4 mg/ml salmon testes DNA. The following applies: tags: His kept;His cleaved; copies: 1;1; label: surface-attached array probe.
As to B1, the binding signal is 7.03 PBM z-score against 500 random probes.

With B2, the binding signal was 14.6 PBM z-score against 500 random probes.

The target in a further data set is RXRa (Homo sapiens, UniProt P19793). Nature of the data set: no ligand; PBM; 180 nM; PBS pH 7.4, 2% milk, 0.02% Triton X-100, 1 mM DTT, BSA, 0.4 mg/ml salmon testes DNA. To be noted: tags: His cleaved; chain copies: 2; label: surface-attached array probe.
Chain of RXRa (P19793 whole entry): as the sequence (P19793 whole entry, chain 2 of 2) above
In the case of B3, the binding signal was -0.54 PBM z-score against 500 random probes.

With B4, the binding signal was 7.79 PBM z-score against 500 random probes.

In the case of B5, the binding signal was 9.06 PBM z-score against 500 random probes.

As for B6, the binding signal is 10.8 PBM z-score against 500 random probes.

The next data set has as its target PPARa:RXRa (Homo sapiens, UniProt Q07869;P19793 full;full). In words: no ligand; PBM; 270 nM : 90 nM RXRa; PBS pH 7.4, 2% milk, 0.02% Triton X-100, 1 mM DTT, BSA, 0.4 mg/ml salmon testes DNA. The following applies: tags: GST kept;His cleaved; copies: 1;1; label: surface-attached array probe. Put shortly:
(§1)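 Antibodies against each partner of ligand-free nuclear receptor dimers (one per run) detected binding on custom Agilent 4×180K protein-binding microarrays after 1 h incubation. The double-stranded probes had 34-nt variable regions carrying direct-repeat seeds, single-nucleotide variants, half-site ablations and random human genomic background sequences. Binding z-scores, from regression-normalized fluorescence, use the random background probes as reference.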
Take B5: the binding signal was 6.96 PBM z-score against 500 random probes.

A further data set addresses LXRb:RXRa (Homo sapiens, UniProt P55055;P19793 full;full). The description is as above. The following applies: tags: His kept;His cleaved; copies: 1;1; label: surface-attached array probe. In outline:
as §1
As for B7, the binding signal is 7.25 PBM z-score against 500 random probes.

Consider B8, for which the binding signal is 0.06 PBM z-score against 500 random probes.

B4: the binding signal was 5.84 PBM z-score against 500 random probes.

On to B5, for which the binding signal was 6.25 PBM z-score against 500 random probes.

B9: the binding signal is 0.07 PBM z-score against 500 random probes.

In the case of B10, the binding signal is -0.41 PBM z-score against 500 random probes.

Another data set addresses VDR:RXRa (Homo sapiens, UniProt P11473;P19793 full;full). The description is as above. The following applies: tags: His kept;His cleaved; copies: 1;1; label: surface-attached array probe. Put shortly:
as §1
Turning to B7, the binding signal is 6.99 PBM z-score against 500 random probes.

B11: the binding signal is 7.14 PBM z-score against 500 random probes.

As to B6, the binding signal is 7.07 PBM z-score against 500 random probes.

On to B9, for which the binding signal is 0.37 PBM z-score against 500 random probes.

For a further data set, the target named is RARg:RXRa (Homo sapiens, UniProt P13631;P19793 full;full). The data set is described as above. To be noted: tags: His kept;His cleaved; copies: 1;1; label: surface-attached array probe. Put shortly:
as §1
Consider B8, for which the binding signal was -0.64 PBM z-score against 500 random probes.

Turning to B4, the binding signal was 7.39 PBM z-score against 500 random probes.

On to B5, for which the binding signal was 8.38 PBM z-score against 500 random probes.

On to B10, for which the binding signal was -0.66 PBM z-score against 500 random probes.

A further data set addresses FXR:RXRa (Homo sapiens, UniProt Q96RI1;P19793 full;full). The data set is described as above. The following applies: tags: His kept;His cleaved; copies: 1;1; label: surface-attached array probe. Put shortly: as §1
With B12, the binding signal was -0.27 PBM z-score against 500 random probes.

As to B4, the binding signal was 8.19 PBM z-score against 500 random probes.

In the case of B5, the binding signal is 8.82 PBM z-score against 500 random probes.

In the case of B6, the binding signal is 8.73 PBM z-score against 500 random probes.

In another data set the target is RARb:RXRa (Homo sapiens, UniProt P10826;P19793 full;full). The description is as above. To be noted: tags: His kept;His cleaved; copies: 1;1; label: surface-attached array probe. In outline:
as §1
For the molecule B11, the binding signal is 5.57 PBM z-score against 500 random probes.

In the case of B4, the binding signal was 6.01 PBM z-score against 500 random probes.

Take B5: the binding signal is 6.27 PBM z-score against 500 random probes.

Turning to B10, the binding signal was -0.17 PBM z-score against 500 random probes.

The next data set concerns the target LXRa:RXRa (Homo sapiens, UniProt Q13133;P19793 full;full). The data set is described as above. To be noted: tags: His kept;His cleaved; copies: 1;1; label: surface-attached array probe. In outline: as §1
Turning to B7, the binding signal is 8.36 PBM z-score against 500 random probes.

B3: the binding signal was -0.75 PBM z-score against 500 random probes.

Turning to B13, the binding signal was 3.8 PBM z-score against 500 random probes.

B12: the binding signal is -0.41 PBM z-score against 500 random probes.

As to B11, the binding signal is 6.64 PBM z-score against 500 random probes.

For B4, the binding signal was 6.69 PBM z-score against 500 random probes.

For the molecule B14, the binding signal is -0.44 PBM z-score against 500 random probes.

For the molecule B15, the binding signal was -0.01 PBM z-score against 500 random probes.

As for B16, the binding signal was 0.28 PBM z-score against 500 random probes.

Regarding B5, the binding signal was 7.32 PBM z-score against 500 random probes.

As to B17, the binding signal was 0.41 PBM z-score against 500 random probes.

Turning to B6, the binding signal was 7.81 PBM z-score against 500 random probes.

Take B18: the binding signal was -0.82 PBM z-score against 500 random probes.

A further data set deals with PXR:RXRa (Homo sapiens, UniProt O75469;P19793 full;full). The data set is described as above. To be noted: tags: His kept;His cleaved; copies: 1;1; label: surface-attached array probe. In outline: as §1
Consider B7, for which the binding signal is 6.87 PBM z-score against 500 random probes.

For the molecule B3, the binding signal is -0.74 PBM z-score against 500 random probes.

For the molecule B13, the binding signal was 3.42 PBM z-score against 500 random probes.

In the case of B12, the binding signal is 0.06 PBM z-score against 500 random probes.

For the molecule B11, the binding signal is 7.03 PBM z-score against 500 random probes.

On to B8, for which the binding signal was -0.37 PBM z-score against 500 random probes.

For B4, the binding signal is 6.47 PBM z-score against 500 random probes.

Consider B14, for which the binding signal is -0.52 PBM z-score against 500 random probes.

Consider B15, for which the binding signal is 0.42 PBM z-score against 500 random probes.

Turning to B16, the binding signal was 0.04 PBM z-score against 500 random probes.

With B5, the binding signal was 6.64 PBM z-score against 500 random probes.

Turning to B17, the binding signal was 0.4 PBM z-score against 500 random probes.

For the molecule B6, the binding signal is 7.42 PBM z-score against 500 random probes.

With B18, the binding signal is -1.27 PBM z-score against 500 random probes.

As for B9, the binding signal was -0.14 PBM z-score against 500 random probes.

For B10, the binding signal is -0.66 PBM z-score against 500 random probes.
